The target of the assay is lysozyme (UniProt P00698 19-147). The assay is described as follows: method not stated (data not shown).
lysozyme, sequence (P00698 19-147 limits assumed): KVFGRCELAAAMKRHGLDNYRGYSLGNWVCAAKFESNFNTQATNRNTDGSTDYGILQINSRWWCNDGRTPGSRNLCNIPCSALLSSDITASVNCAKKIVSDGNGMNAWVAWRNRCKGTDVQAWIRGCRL

B1: FN3con.DE0.4.1_graft_v1 (designed binder)
chain: PSPPGNLRVTDVTSTSVTLSWRGYPWATGYRVEYREAGGEWKEVTVPGDLSHRYTVTGLKPGTEYEFRVRAVNRVGRTFDTPGPSSVSVTT
notes: Made by gene synthesis, expressed in E. coli and purified; also called the designed graft; the graft
In general, Kd refers to the free concentration of one partner at which half of the binding sites on the other are occupied at equilibrium, for simple one-to-one binding. A lower Kd goes with higher affinity. Regarding B1, the dissociation constant Kd was around 100 µM.

Values taken from patent publication US20190316116A1 (MONASH UNIVERSITY, published 2019).
